Results published in article PMC4365668, “The zinc finger proteins ZNF644 and WIZ regulate the G9a/GLP complex for gene repression”.

T1: GST-WIZN200 (human, UniProt O95785 1-200)
T1 sequence: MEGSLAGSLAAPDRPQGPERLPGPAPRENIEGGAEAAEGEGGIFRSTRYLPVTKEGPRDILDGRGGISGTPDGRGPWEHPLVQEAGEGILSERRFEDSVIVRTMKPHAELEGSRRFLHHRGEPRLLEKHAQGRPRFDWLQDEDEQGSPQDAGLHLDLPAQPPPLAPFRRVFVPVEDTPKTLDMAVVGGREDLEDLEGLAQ

T2: GST-ZNF644N300 (human, UniProt Q9H582 1-300)
T2 sequence: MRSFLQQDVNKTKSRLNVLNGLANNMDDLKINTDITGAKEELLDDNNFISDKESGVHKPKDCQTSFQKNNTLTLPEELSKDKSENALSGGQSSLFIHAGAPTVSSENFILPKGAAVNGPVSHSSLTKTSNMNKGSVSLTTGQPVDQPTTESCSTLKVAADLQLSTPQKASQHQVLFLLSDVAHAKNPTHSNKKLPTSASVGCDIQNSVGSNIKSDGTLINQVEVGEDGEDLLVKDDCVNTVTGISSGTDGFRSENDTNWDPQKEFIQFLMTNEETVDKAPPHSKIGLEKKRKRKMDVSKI

T3: GST-ZNF644 (human, UniProt Q9H582 1-1327)
T3 sequence: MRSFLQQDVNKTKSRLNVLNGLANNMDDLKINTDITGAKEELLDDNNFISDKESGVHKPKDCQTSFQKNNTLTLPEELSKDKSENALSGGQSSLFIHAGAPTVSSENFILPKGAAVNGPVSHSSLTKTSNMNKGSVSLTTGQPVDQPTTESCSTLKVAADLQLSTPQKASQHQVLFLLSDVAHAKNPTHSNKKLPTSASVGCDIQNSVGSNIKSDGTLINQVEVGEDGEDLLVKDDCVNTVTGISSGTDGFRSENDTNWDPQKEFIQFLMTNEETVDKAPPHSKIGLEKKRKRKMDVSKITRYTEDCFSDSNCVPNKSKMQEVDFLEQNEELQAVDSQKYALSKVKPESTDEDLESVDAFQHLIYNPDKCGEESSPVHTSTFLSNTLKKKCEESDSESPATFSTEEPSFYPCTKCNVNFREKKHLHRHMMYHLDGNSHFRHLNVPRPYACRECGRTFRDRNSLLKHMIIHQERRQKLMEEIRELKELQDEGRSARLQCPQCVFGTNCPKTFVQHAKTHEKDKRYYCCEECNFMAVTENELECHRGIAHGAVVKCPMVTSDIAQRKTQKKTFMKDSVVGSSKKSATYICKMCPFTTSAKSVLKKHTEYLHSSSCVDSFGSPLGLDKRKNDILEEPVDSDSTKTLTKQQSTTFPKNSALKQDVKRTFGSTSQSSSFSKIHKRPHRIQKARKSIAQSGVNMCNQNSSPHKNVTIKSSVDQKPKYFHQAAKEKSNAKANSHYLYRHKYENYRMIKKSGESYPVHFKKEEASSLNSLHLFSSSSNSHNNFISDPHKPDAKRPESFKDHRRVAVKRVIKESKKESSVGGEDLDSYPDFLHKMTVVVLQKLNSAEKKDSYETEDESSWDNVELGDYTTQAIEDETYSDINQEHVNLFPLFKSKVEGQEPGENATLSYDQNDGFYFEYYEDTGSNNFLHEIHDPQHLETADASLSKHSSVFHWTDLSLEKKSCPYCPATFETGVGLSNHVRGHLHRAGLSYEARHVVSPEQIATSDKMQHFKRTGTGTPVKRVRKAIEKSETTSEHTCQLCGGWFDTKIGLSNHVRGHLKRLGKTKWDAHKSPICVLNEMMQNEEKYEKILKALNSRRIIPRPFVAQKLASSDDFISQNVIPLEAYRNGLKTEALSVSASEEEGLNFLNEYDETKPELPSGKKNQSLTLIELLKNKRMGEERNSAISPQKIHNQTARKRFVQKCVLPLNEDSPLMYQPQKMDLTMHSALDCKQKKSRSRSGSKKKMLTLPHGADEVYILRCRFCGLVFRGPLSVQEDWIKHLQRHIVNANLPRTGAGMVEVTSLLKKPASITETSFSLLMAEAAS


Assays:
Experiment in all cases: EMSA; 20 mM HEPES-KOH pH 7.9, 20% glycerol, 0.2 mM EDTA, 0.1 M KCl, 0.5 mM PMSF, 1 mM DTT, 5 mM MgCl2, 1.25 ug/ul BSA, 0.2 nM DNA, 2 h at 4 C; 7.5% PAGE in TBE
Conditions in all cases: protein: recombinant; tags: GST; label: 5'-32P; blunt
[1] = target: GST-WIZ (human, UniProt O95785 1-1651)
[2] = target: T1, GST-WIZN200
[3] = target: T2, GST-ZNF644N300
[4] = target: T3, GST-ZNF644

Binder | binding result [1] | binding result [2] | binding result [3] | binding result [4]
WIZ WT DNA target (dsDNA) DNA 1: GAGTCTCACTCACGCGCCATTCCATTCCATTCAGATACTAGTACGGTCAG DNA 2: CTGACCGTACTAGTATCTGAATGGAATGGAATGGCGCGTGAGTGAGACTC | binds | no binding |  | 
ZNF644 WT DNA target (dsDNA) DNA 1: GAGTAAGATCATGCCACTGGGAATCATCGAACACAGAGTGAGGCTGGG DNA 2: CCCAGCCTCACTCTGTGTTCGATGATTCCCAGTGGCATGATCTTACTC |  |  | no binding | binds
